Laboratory results reported in patent US11306156.
“And” between values parts separate entries of the source, which are not always exact repeats. Equal entries are not always repeated.

Experiments:
[1] = target: D3H44 light chain Q124E_Q160E_T180E, N-terminal HA or FLAG tag; experiment: LCCA, L1:L2 DNA 1:9, SPR of light chain tags; competing light chain m16
[2] = target: D3H44 light chain Q124R_T178R, N-terminal HA or FLAG tag; experiment: LCCA, L1:L2 DNA 1:3, SPR of light chain tags; competing light chain m11
[3] = target: D3H44 light chain Q124R_T178K, N-terminal HA or FLAG tag; experiment: as above
[4] = target: D3H44 light chain Q124K_T178R, N-terminal HA or FLAG tag; experiment: as above
[5] = target: D3H44 light chain Q124E_Q160E_T180E, N-terminal HA or FLAG tag; experiment: LCCA, L1:L2 DNA 1:3, SPR of light chain tags; competing light chain m12
[6] = target: D3H44 light chain Q124E_T180E, N-terminal HA or FLAG tag; experiment: as above
[7] = target: D3H44 light chain Q124E_Q160E_T180E, N-terminal HA or FLAG tag; experiment: LCCA, L1:L2 DNA 1:3, SPR of light chain tags; competing light chain m15
[8] = target: D3H44 light chain Q124E_T180E, N-terminal HA or FLAG tag; experiment: LCCA, L1:L2 DNA 1:3, SPR of light chain tags; competing light chain m10
[9] = target: D3H44 light chain Q124E_Q160E_T180E, N-terminal HA or FLAG tag; experiment: LCCA, L1:L2 DNA 1:3, SPR of light chain tags; competing light chain m16
[10] = target: D3H44 light chain Q124R_T178R, N-terminal HA or FLAG tag; experiment: LCCA, L1:L2 DNA 1:3, SPR of light chain tags; competing light chain m13
[11] = target: D3H44 light chain Q124R_Q160K_T178R, N-terminal HA or FLAG tag; experiment: as above
[12] = target: D3H44 light chain T178R, N-terminal HA or FLAG tag; experiment: as above
[13] = target: D3H44 light chain Q124R_T178R, N-terminal HA or FLAG tag; experiment: LCCA, L1:L2 DNA 1:9, SPR of light chain tags; competing light chain m11
[14] = target: D3H44 light chain Q124R_T178K, N-terminal HA or FLAG tag; experiment: as above
[15] = target: D3H44 light chain Q124K_T178R, N-terminal HA or FLAG tag; experiment: as above
[16] = target: D3H44 light chain Q124E_Q160E_T180E, N-terminal HA or FLAG tag; experiment: LCCA, L1:L2 DNA 1:9, SPR of light chain tags; competing light chain m12
[17] = target: D3H44 light chain Q124E_T180E, N-terminal HA or FLAG tag; experiment: LCCA, L1:L2 DNA 1:3, SPR of light chain tags; competing light chain m14
[18] = target: D3H44 light chain Q124E_Q160E_T180E, N-terminal HA or FLAG tag; experiment: LCCA, L1:L2 DNA 1:9, SPR of light chain tags; competing light chain m15
[19] = target: D3H44 light chain Q124E_T180E, N-terminal HA or FLAG tag; experiment: LCCA, L1:L2 DNA 1:3, SPR of light chain tags; competing light chain m15
[20] = target: D3H44 light chain Q124K_T178R, N-terminal HA or FLAG tag; experiment: LCCA, L1:L2 DNA 1:3, SPR of light chain tags; competing light chain m13
[21] = target: D3H44 light chain Q124E_Q160E_T180E, N-terminal HA or FLAG tag; experiment: LCCA, L1:L2 DNA 1:9, SPR of light chain tags; competing light chain m10
[22] = target: D3H44 light chain T178R, N-terminal HA or FLAG tag; experiment: LCCA, L1:L2 DNA 1:3, SPR of light chain tags; competing light chain m11
[23] = target: D3H44 light chain Q124E_Q160E_T180E, N-terminal HA or FLAG tag; experiment: LCCA, L1:L2 DNA 1:3, SPR of light chain tags; competing light chain m10
[24] = target: D3H44 light chain T178R, N-terminal HA or FLAG tag; experiment: LCCA, L1:L2 DNA 1:9, SPR of light chain tags; competing light chain m11
[25] = target: D3H44 light chain Q124R_T178R with N-terminal HA or FLAG tag; experiment: LCCA (SPR tag readout), L1:L2 DNA 1:3, normalized to 1:1; competing light chain m18
[26] = target: D3H44 light chain T178R with N-terminal HA or FLAG tag; experiment: as above
[27] = target: D3H44 light chain Q124R_T178K with N-terminal HA or FLAG tag; experiment: as above
[28] = target: D3H44 light chain Q124R_T178R with N-terminal HA or FLAG tag; experiment: LCCA (SPR tag readout), L1:L2 DNA 1:3, normalized to 1:1; competing light chain m13
[29] = target: D3H44 light chain T178R with N-terminal HA or FLAG tag; experiment: as above
[30] = target: D3H44 light chain Q124K_T178R with N-terminal HA or FLAG tag; experiment: as above
[31] = target: D3H44 light chain Q124R_Q160K_T178R with N-terminal HA or FLAG tag; experiment: as above
[32] = target: D3H44 light chain Q124E_Q160E_T180E with N-terminal HA or FLAG tag; experiment: LCCA (SPR tag readout), L1:L2 DNA 1:9, normalized to 1:1; competing light chain m19
[33] = target: D3H44 light chain Q124R_T178R with N-terminal HA or FLAG tag; experiment: LCCA (SPR tag readout), L1:L2 DNA 1:9, normalized to 1:1; competing light chain m13
[34] = target: D3H44 light chain Q124E_Q160E_T180E with N-terminal HA or FLAG tag; experiment: LCCA (SPR tag readout), L1:L2 DNA 1:9, normalized to 1:1; competing light chain m15
[35] = target: D3H44 light chain Q124E_T180E with N-terminal HA or FLAG tag; experiment: LCCA (SPR tag readout), L1:L2 DNA 1:3, normalized to 1:1; competing light chain m12
[36] = target: D3H44 light chain Q124E_T180E with N-terminal HA or FLAG tag; experiment: LCCA (SPR tag readout), L1:L2 DNA 1:3, normalized to 1:1; competing light chain m14
[37] = target: D3H44 light chain Q124E_T180E with N-terminal HA or FLAG tag; experiment: LCCA (SPR tag readout), L1:L2 DNA 1:3, normalized to 1:1; competing light chain m9
[38] = target: D3H44 light chain Q124E_T178E with N-terminal HA or FLAG tag; experiment: as above
[39] = target: D3H44 light chain Q124E_Q160E_T180E with N-terminal HA or FLAG tag; experiment: as above
[40] = target: D3H44 light chain Q124E_T180E with N-terminal HA or FLAG tag; experiment: LCCA (SPR tag readout), L1:L2 DNA 1:9, normalized to 1:1; competing light chain m9
[41] = target: D3H44 light chain Q124E_T178E with N-terminal HA or FLAG tag; experiment: as above
[42] = target: D3H44 light chain Q124E_Q160E_T180E with N-terminal HA or FLAG tag; experiment: as above
[43] = target: D3H44 light chain Q124E_Q160E_T180E with N-terminal HA or FLAG tag; experiment: LCCA (SPR tag readout), L1:L2 DNA 1:3, normalized to 1:1; competing light chain m15
[44] = target: D3H44 light chain Q124R_T178R with N-terminal HA or FLAG tag; experiment: LCCA (SPR tag readout), L1:L2 DNA 1:3, normalized to 1:1; competing light chain m11
[45] = target: D3H44 light chain Q124R_T178R with N-terminal HA or FLAG tag; experiment: LCCA (SPR tag readout), L1:L2 DNA 1:9, normalized to 1:1; competing light chain m18
[46] = target: D3H44 light chain T178R with N-terminal HA or FLAG tag; experiment: as above
[47] = target: D3H44 light chain Q124R_T178K with N-terminal HA or FLAG tag; experiment: as above
[48] = target: D3H44 light chain Q124E_T180E with N-terminal HA or FLAG tag; experiment: LCCA (SPR tag readout), L1:L2 DNA 1:3, normalized to 1:1; competing light chain m19
[49] = target: D3H44 light chain Q124E_Q160E_T180E with N-terminal HA or FLAG tag; experiment: as above
[50] = target: D3H44 light chain Q124R_T178R with N-terminal HA or FLAG tag; experiment: LCCA (SPR tag readout), L1:L2 DNA 1:9, normalized to 1:1; competing light chain m11

“D3H44 Fab heavy chain L143E_K145T_Q179D, C-terminal ABD2-His6 tag” was tested, and the H1L1:H1L2 normalized median ratio [1] was 22 share of 100, the H1L1:H1L2 normalized median ratio [2] was 87 share of 100 and the H1L1:H1L2 normalized median scalar value ln(r1/f1) [2] was 1.9. For the same substance, the H1L1:H1L2 normalized median ratio [3] was 89 share of 100, the H1L1:H1L2 normalized median scalar value ln(r1/f1) [3] was 2.08 and 2.03 and the H1L1:H1L2 normalized median ratio [4] was 86 share of 100. The H1L1:H1L2 normalized median scalar value ln(r1/f1) [4] was 1.78, the H1L1:H1L2 normalized median ratio [5] was 13 share of 100 and the H1L1:H1L2 normalized median ratio [6] was 24 share of 100. For the same substance, the H1L1:H1L2 normalized median ratio [7] was 14 share of 100, the H1L1:H1L2 normalized median ratio [8] was 35 share of 100 and the H1L1:H1L2 normalized median ratio [9] was 11 share of 100. The H1L1:H1L2 normalized median ratio [10] was 76 share of 100, the H1L1:H1L2 normalized median scalar value ln(r1/f1) [10] was 1.14 and the H1L1:H1L2 normalized median ratio [11] was 69 share of 100. For the same substance, the H1L1:H1L2 normalized median scalar value ln(r1/f1) [11] was 0.79, the H1L1:H1L2 normalized median ratio [12] was 65 share of 100 and the H1L1:H1L2 normalized median scalar value ln(r1/f1) [12] was 0.64. The H1L1:H1L2 normalized median ratio [13] was 82 share of 100, the H1L1:H1L2 normalized median scalar value ln(r1/f1) [13] was 1.55 and the H1L1:H1L2 normalized median ratio [14] was 78 share of 100. For the same substance, the H1L1:H1L2 normalized median scalar value ln(r1/f1) [14] was 1.28, the H1L1:H1L2 normalized median ratio [15] was 86 share of 100 and the H1L1:H1L2 normalized median scalar value ln(r1/f1) [15] was 1.84. For the same substance, the H1L1:H1L2 normalized median ratio [16] was 18 share of 100, the H1L1:H1L2 normalized median ratio [17] was 31 share of 100 and the H1L1:H1L2 normalized median ratio [18] was 14 share of 100.

With “D3H44 Fab heavy chain L143E_K145T_Q179E, C-terminal ABD2-His6 tag” the H1L1:H1L2 normalized median ratio [2] was 91 share of 100, the H1L1:H1L2 normalized median scalar value ln(r1/f1) [2] was 2.27 and the H1L1:H1L2 normalized median ratio [3] was 83 share of 100 and 33 share of 100. The H1L1:H1L2 normalized median scalar value ln(r1/f1) [3] was 1.62, the H1L1:H1L2 normalized median ratio [5] was 9 share of 100 and the H1L1:H1L2 normalized median ratio [19] was 30 share of 100. For the same substance, the H1L1:H1L2 normalized median ratio [8] was 40 share of 100, the H1L1:H1L2 normalized median ratio [9] was 17 share of 100 and the H1L1:H1L2 normalized median ratio [11] was 73 share of 100. For the same substance, the H1L1:H1L2 normalized median scalar value ln(r1/f1) [11] was 1, the H1L1:H1L2 normalized median ratio [20] was 70 share of 100 and the H1L1:H1L2 normalized median scalar value ln(r1/f1) [20] was 0.84. The H1L1:H1L2 normalized median ratio [12] was 60 share of 100, the H1L1:H1L2 normalized median scalar value ln(r1/f1) [12] was 0.41 and the H1L1:H1L2 normalized median ratio [13] was 78 share of 100. The H1L1:H1L2 normalized median scalar value ln(r1/f1) [13] was 1.29, the H1L1:H1L2 normalized median ratio [16] was 22 share of 100 and the H1L1:H1L2 normalized median ratio [17] was 27 share of 100.

For “D3H44 Fab heavy chain L143D_K145T_Q179E, C-terminal ABD2-His6 tag”, the H1L1:H1L2 normalized median ratio [21] was 11 share of 100, the H1L1:H1L2 normalized median ratio [22] was 89 share of 100 and the H1L1:H1L2 normalized median scalar value ln(r1/f1) [22] was 2.1. The H1L1:H1L2 normalized median ratio [23] was 11 share of 100, the H1L1:H1L2 normalized median ratio [24] was 89 share of 100 and the H1L1:H1L2 normalized median scalar value ln(r1/f1) [24] was 2.09.

In the case of “D3H44 Fab heavy chain S186K with C-terminal ABD2-His6 tag”, the H2L2:H2L1 normalized median ratio [25] is reported as 6%, the H2L2:H2L1 normalized median ratio [26] is reported as 9% and the H2L2:H2L1 normalized median ratio [27] is reported as 8%. For the same substance, the H2L2:H2L1 normalized median ratio [28] was 6%, the H2L2:H2L1 normalized median ratio [29] was 4% and the H2L2:H2L1 normalized median ratio [30] was 2%. For the same substance, the H2L2:H2L1 normalized median ratio [31] was 3%, the H2L2:H2L1 normalized median ratio [32] was 87% and the H2L2:H2L1 normalized median ratio [33] was 11%. The H2L2:H2L1 normalized median ratio [34] was 89%, the H2L2:H2L1 normalized median ratio [35] was 98% and the H2L2:H2L1 normalized median ratio [36] was 97%. For the same substance, the H2L2:H2L1 normalized median ratio [37] was 94%, the H2L2:H2L1 normalized median ratio [38] was 96% and the H2L2:H2L1 normalized median ratio [39] was 94%. For the same substance, the H2L2:H2L1 normalized median ratio [40] was 89%, the H2L2:H2L1 normalized median ratio [41] was 96% and the H2L2:H2L1 normalized median ratio [42] was 94%. It also gave an H2L2:H2L1 normalized median ratio [43] of 92%, an H2L2:H2L1 normalized median ratio [44] of 4% and an H2L2:H2L1 normalized median ratio [45] of 6%. It also gave an H2L2:H2L1 normalized median ratio [46] of 13%, an H2L2:H2L1 normalized median ratio [47] of 11% and an H2L2:H2L1 normalized median ratio [48] of 96%. It also gave an H2L2:H2L1 normalized median ratio [49] of 91% and an H2L2:H2L1 normalized median ratio [50] of 4%.
